Experimental data from PMC4085576.

Target: microtubules (X-rhodamine labeled, biotin-linked to the surface)
Experiment: TIRF microscopy of GFP-tagged protein on immobilised microtubules

B1: KIF7_(560)-GFP, N-terminal motor domain and first coiled-coil of KIF7 with a C-terminal GFP tag (domain or fragment)
chain: MGLEAQRLPGAEEAPVRVALRVRPLLPKELLHGHQSCLRVEPERGRITLGRDRHFGFHVVLGEDTGQEAVYQACVQPLLEAFFEGFNATVFAYGQTGSGKTYTMGEASVASLHEDEQGIIPRAMAEAFKLIDENDLLDCLVHVSYLELYKEEFRDLLEVGTASRDIQLREDDRGNVVLCGVKEVDVEGLDEVLSLLEMGNAARHTGATHFNRLSSRSHTVFTVTLEQRGRTPSRLPRPAAGHLLVSKFHFVDLAGSERVLKTGSTGERLKESIQINSTLLALGNVISALGDPQRRGSHIPYRDSKITRILKDSLGGNAKTVMIACVSPSSSDFDETLNTLNYASRAQNIRNRATVNWHPEAERVPEEQAAGARGPPRHRSETRIIHRGRRVPCPAVGSAAVAAGLGAECARCRARTSAAYSLLRELQAEPGLPGAAARKVRDWLCAVEGERSTLSSASGPDSGIESAPAEDQAAQGTSGRKGDEGTQQLLTLQSQVARLEEENRDFLAALEDAMEQYKLQSDRLREQQEEMVELRLRLELAQPGWGAPGLLQGLPPGSFV
fold increase in filament-bound KIF7 with 2 mM AMP-PNP against 1 mM MgATP: 2 fold
